Assay results: PMC7948426

Target: NES–Venus–mGsi (nuclear export sequence–Venus–mini G protein mGsi)
Experiment: BRET with mini G protein V-mGsi (net BRET pH profile)
Conditions: read off a plot
[1] = 150 mM K+ (no Na+), pH 6.5 point
[2] = 150 mM K+ (no Na+), pH 8.5 point

Substance	response [1]	response [2]	response (150 mM Na+, pH 6.5 point)	response (150 mM Na+, pH 8.5 point)
GPR4–Rluc8 (wild type) (from UniProt P46093) D63N; D282N	0.0057 netBRET	0.0026 netBRET	0.0068 netBRET	0.0022 netBRET
GPR4–Rluc8 (wild type) (from UniProt P46093) E145Q	0.032 netBRET	0.023 netBRET	0.032 netBRET	0.013 netBRET
GPR65–Rluc8 (wild type) (from UniProt Q8IYL9) D60N; D286N	0.033 netBRET	0.019 netBRET	0.032 netBRET	0.02 netBRET
GPR65–Rluc8 (wild type) (from UniProt Q8IYL9) E142Q	0.063 netBRET	0.052 netBRET	0.06 netBRET	0.034 netBRET
GPR68–Rluc8 (wild type) (from UniProt Q15743) D67N; D282N	0.0073 netBRET	0.0037 netBRET	0.006 netBRET	0.0023 netBRET
GPR68–Rluc8 (wild type) (from UniProt Q15743) E149Q	0.029 netBRET	0.026 netBRET	0.028 netBRET	0.018 netBRET
